In the supplement of paper PMC9112550, “Optimization of the antimicrobial peptide Bac7 by deep mutational scanning” (BMC Biology, 2022):

System: Escherichia coli TOP10
Assay: shrunken log2 fold change of peptide-encoding DNA abundance (4.5 h post-induction vs induction); higher = less antimicrobial activity (less host growth inhibition)
Conditions: time post-induction: 4.5 h; library: site-saturation at positions 5, 18, 19, 20
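Note: peptides expressed intracellularly from a pBAD plasmid library in pooled LB shake-flask culture, induced with 0.3% L-arabinose, DNA abundance read by NGS, three biological replicates, DESeq2 with apeglm shrinkage.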

Sequence	shrunken log2 fold change
RRIRNRPPRLPRPRPRPWINPRP	-0.0185
RRIRRRPPRLPRPRPRPFECPRP	0.036
RRIRWRPPRLPRPRPRPTKQPRP	0.0132
RRIRVRPPRLPRPRPRPKMRPRP	0.329
RRIRERPPRLPRPRPRPEITPRP	-0.045
RRIRYRPPRLPRPRPRPEPFPRP	0.0898
RRIRHRPPRLPRPRPRPNLVPRP	-0.00912
RRIRGRPPRLPRPRPRPITAPRP	0.236
RRIRQRPPRLPRPRPRPMQCPRP	-0.409
RRIRNRPPRLPRPRPRPTPQPRP	0.232
RRIRSRPPRLPRPRPRPMKRPRP	-0.115
RRIRTRPPRLPRPRPRPRCIPRP	0.0613
RRIRPRPPRLPRPRPRPGFTPRP	-0.139
RRIRWRPPRLPRPRPRPCNRPRP	-0.0268
RRIRCRPPRLPRPRPRPMQYPRP	-0.000361
RRIRIRPPRLPRPRPRPQLAPRP	-0.0191
RRIRKRPPRLPRPRPRPVATPRP	0.635
RRIRFRPPRLPRPRPRPPKFPRP	0.0968
RRIRWRPPRLPRPRPRPFKEPRP	-0.139
RRIRKRPPRLPRPRPRPVDWPRP	0.852
RRIRERPPRLPRPRPRPELEPRP	0.276
RRIRYRPPRLPRPRPRPPVLPRP	-0.132
RRIRTRPPRLPRPRPRPACRPRP	0.206

Sequence	shrunken log2 fold change
RRIRIRPPRLPRPRPRPEICPRP	-0.0162
RRIRWRPPRLPRPRPRPCEIPRP	-0.243
RRIRHRPPRLPRPRPRPAWSPRP	-0.0185
RRIRERPPRLPRPRPRPHAEPRP	-0.0335
RRIRFRPPRLPRPRPRPWSRPRP	-0.147
RRIRYRPPRLPRPRPRPCCDPRP	-0.479
RRIRWRPPRLPRPRPRPFLYPRP	-0.0978
RRIRRRPPRLPRPRPRPDWLPRP	0.365
RRIRARPPRLPRPRPRPAQLPRP	0.324
RRIRSRPPRLPRPRPRPCWQPRP	-0.00872
RRIRQRPPRLPRPRPRPGFMPRP	-0.176
RRIRGRPPRLPRPRPRPAADPRP	2.21
RRIRDRPPRLPRPRPRPDLTPRP	0.00118
RRIRNRPPRLPRPRPRPPQSPRP	0.331
RRIRQRPPRLPRPRPRPMNLPRP	-0.169
RRIRGRPPRLPRPRPRPPVTPRP	0.728
RRIRQRPPRLPRPRPRPGLVPRP	0.18
RRIRFRPPRLPRPRPRPMLRPRP	0.0268
RRIRPRPPRLPRPRPRPIFTPRP	-0.0736
RRIRQRPPRLPRPRPRPATHPRP	-0.28
RRIRGRPPRLPRPRPRPPLSPRP	0.897
RRIRGRPPRLPRPRPRPFRPPRP	0.021
RRIRARPPRLPRPRPRPWYPPRP	-0.11

Sequence	shrunken log2 fold change
RRIRERPPRLPRPRPRPCTVPRP	-0.0354
RRIRARPPRLPRPRPRPWDMPRP	0.187
RRIRCRPPRLPRPRPRPCDGPRP	0.0624
RRIRPRPPRLPRPRPRPGTKPRP	0.453
RRIRRRPPRLPRPRPRPIDQPRP	0.696
RRIRQRPPRLPRPRPRPGRHPRP	0.0349
RRIRVRPPRLPRPRPRPTVQPRP	-0.0375
RRIRFRPPRLPRPRPRPIPGPRP	-0.00876
RRIRCRPPRLPRPRPRPTVKPRP	-0.286
RRIRLRPPRLPRPRPRPARDPRP	0.426
RRIRNRPPRLPRPRPRPLCRPRP	-0.372
RRIRDRPPRLPRPRPRPRTMPRP	-0.0423
RRIRIRPPRLPRPRPRPMQHPRP	-0.289
RRIRGRPPRLPRPRPRPGIDPRP	0.607
RRIRQRPPRLPRPRPRPARLPRP	0.0512
RRIRLRPPRLPRPRPRPWYMPRP	-0.0481
RRIRSRPPRLPRPRPRPFPFPRP	-0.187
RRIRERPPRLPRPRPRPVNKPRP	-0.31
RRIRQRPPRLPRPRPRPFITPRP	-0.569
RRIRFRPPRLPRPRPRPHTCPRP	0.00442
RRIRMRPPRLPRPRPRPLRIPRP	1.06
RRIRDRPPRLPRPRPRPLIHPRP	-0.0249
RRIRCRPPRLPRPRPRPGGPPRP	0.108

Sequence	shrunken log2 fold change
RRIRNRPPRLPRPRPRPNFYPRP	-0.225
RRIRARPPRLPRPRPRPSHPPRP	-0.0758
RRIRGRPPRLPRPRPRPRSDPRP	0.555
RRIRIRPPRLPRPRPRPLIGPRP	-0.0888
RRIRFRPPRLPRPRPRPNNWPRP	-0.369
RRIRQRPPRLPRPRPRPTDTPRP	-0.339
RRIRIRPPRLPRPRPRPYAIPRP	-0.0122
RRIRWRPPRLPRPRPRPNILPRP	-0.402
RRIRVRPPRLPRPRPRPMYCPRP	-0.233
RRIRHRPPRLPRPRPRPASIPRP	-0.164
RRIRPRPPRLPRPRPRPEEDPRP	0.192
RRIRLRPPRLPRPRPRPHWIPRP	-0.162
RRIRDRPPRLPRPRPRPSAAPRP	1.02
RRIRHRPPRLPRPRPRPSTLPRP	-0.0931
RRIRWRPPRLPRPRPRPRANPRP	0.425
RRIRARPPRLPRPRPRPHHYPRP	-0.223
RRIRSRPPRLPRPRPRPPSTPRP	0.141
RRIRMRPPRLPRPRPRPANEPRP	0.182
RRIRIRPPRLPRPRPRPFHIPRP	-0.127
RRIRARPPRLPRPRPRPETMPRP	0.0902
RRIRTRPPRLPRPRPRPFPNPRP	-0.105
RRIRLRPPRLPRPRPRPGMLPRP	0.0285
